Assay results from patent US20250011363A1, “OPTIMIZED SHORTENED PEPTIDE THAT BINDS TO ACETYLCHOLINE RECEPTOR, AND USE THEREOF” (SKINMED CO., LTD., priority 2021, published 2025).

target: acetylcholine receptor (Homo sapiens, UniProt P02708); assay: SPR binding affinity (RU) of optimized 5mer/6mer/7mer peptides, Examples 6-7; settings: 6mer-1 Top sequence; SPR; peptides tested at 10 μM
How it was run: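 SPR, peptides at 10 μM; read-out = response units (RU). Sequences drawn from top- or bottom-frequency amino acid combinations, 5mer/6mer-1/6mer-2 libraries.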

Sequence of acetylcholine receptor (P02708 21-457): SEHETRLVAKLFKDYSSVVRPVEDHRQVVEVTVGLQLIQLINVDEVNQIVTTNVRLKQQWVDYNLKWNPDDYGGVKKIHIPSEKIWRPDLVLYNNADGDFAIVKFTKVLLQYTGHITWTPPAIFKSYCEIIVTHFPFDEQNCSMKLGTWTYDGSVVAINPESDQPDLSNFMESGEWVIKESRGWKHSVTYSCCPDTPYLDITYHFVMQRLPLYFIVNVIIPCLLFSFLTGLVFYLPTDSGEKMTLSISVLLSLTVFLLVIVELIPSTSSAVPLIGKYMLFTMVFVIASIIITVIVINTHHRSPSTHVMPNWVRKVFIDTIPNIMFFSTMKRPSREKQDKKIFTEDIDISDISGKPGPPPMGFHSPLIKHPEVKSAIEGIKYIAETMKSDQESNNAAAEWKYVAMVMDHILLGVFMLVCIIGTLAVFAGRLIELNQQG

Going from 6mer-1-209 (RKGYTR) to 6mer-1-364 (RKRQSK), the Binding affinity rises from 121 Ru to 124 Ru.

First: 6mer-1-204 (KKRQRR)
Second: 6mer-1-212 (RRRICR)
The Binding affinity of the first is higher: 154 Ru for the first, 148 Ru for the second.

First: 6mer-1-236 (RKLISR)
Second: 6mer-1-240 (RRSRRR)
The Binding affinity of the first is higher: 151 Ru for the first, 148 Ru for the second.

First: 6mer-1-396 (KRQIQK)
Second: 6mer-1-247 (KKVRQK)
The Binding affinity of the first is higher: 148 Ru for the first, 122 Ru for the second.

same assay, conditions: 6mer-2 Top sequence; SPR; peptides tested at 10 μM

Going from 6mer-2-38 (RSYYKR) to 6mer-2-89 (KSRSKK), the Binding affinity rises from 136 Ru to 141 Ru.

Compared with 6mer-2-6 (KSICRR), 6mer-2-106 (RWVQRK) is higher in Binding affinity: 122 Ru for the first, 123 Ru for the second.

In the case of 6mer-2-86 (KQFRRK), the Binding affinity is reported as 126 Ru.

same assay, conditions: SPR, Resonance Units; 5mer Bottom sequence (bottom combinations); peptides tested at 10 μM

Going from 5mer-955 (KNADK) to 5mer-748 (REPMK), the Binding affinity falls from 14 Ru to 12 Ru.

Going from 5mer-606 (RIHWK) to 5mer-726 (KATMK), the Binding affinity rises from 25 Ru to 33 Ru.

Going from 5mer-758 (KCDFK) to 5mer-999 (KTKFK), the Binding affinity falls from 30 Ru to 19 Ru.

Compared with 5mer-621 (KKSMK), 5mer-1070 (RETGK) is higher in Binding affinity: 13 Ru for the first, 26 Ru for the second.

Compared with 5mer-679 (KKTVK), 5mer-656 (KATGR) is lower in Binding affinity: 21 Ru for the first, 13 Ru for the second.

5mer-807 (RKNKK) and 5mer-689 (RFSDK) are the same in Binding affinity: 20 Ru for the first, 20 Ru for the second.

Compared with 5mer-1046 (KHTMR), 5mer-693 (RPSKK) is lower in Binding affinity: 19 Ru for the first, 17 Ru for the second.

Compared with 5mer-710 (KEKAR), 5mer-665 (KTWEK) is higher in Binding affinity: 21 Ru for the first, 26 Ru for the second.

5mer-790 (REAGK) was tested, and the Binding affinity was 33 Ru.

same assay, conditions: SPR, Resonance Units; peptides tested at 10 μM; 6mer-1 Bottom sequence

Compared with 6mer-1-1153 (RKHNKK), 6mer-1-1080 (KKHNMR) is higher in Binding affinity: 23 Ru for the first, 38 Ru for the second.

First: 6mer-1-1013 (KKTTNK)
Second: 6mer-1-1121 (KKTWWR)
The Binding affinity of the first is higher: 29 Ru for the first, 28 Ru for the second.

Going from 6mer-1-1073 (RKYMWK) to 6mer-1-1182 (KKTCHR), the Binding affinity rises from 27 Ru to 35 Ru.

First: 6mer-1-1032 (KKTSMR)
Second: 6mer-1-1155 (RKKEKR)
The Binding affinity of the first is lower: 27 Ru for the first, 28 Ru for the second.

With 6mer-1-1082 (KKTCDR) the Binding affinity was 37 Ru.

same assay, conditions: SPR, Resonance Units; peptides tested at 10 μM; 6mer-1 Bottom sequence (Table 11)

Going from 6mer-1-711 (RRATHR) to 6mer-1-774 (KKEMER), the Binding affinity rises from 19 Ru to 21 Ru.

First: 6mer-1-684 (KRNNDR)
Second: 6mer-1-602 (RKAEKR)
The Binding affinity of the first is higher: 20 Ru for the first, 18 Ru for the second.

In the case of 6mer-1-713 (KKATNK), the Binding affinity is reported as 20 Ru.

same assay, conditions: SPR, Resonance Units; peptides tested at 10 μM; 6mer-2 Bottom sequence

Going from 6mer-2-637 (RPPVRK) to 6mer-2-660 (RHKDRK), the Binding affinity falls from 32 Ru to 16 Ru.

Compared with 6mer-2-712 (KIPHRR), 6mer-2-749 (KMWKRK) is lower in Binding affinity: 29 Ru for the first, 20 Ru for the second.

Going from 6mer-2-860 (KPNFRR) to 6mer-2-627 (KKTARR), the Binding affinity rises from 31 Ru to 33 Ru.

Compared with 6mer-2-774 (KFDARK), 6mer-2-914 (KDDIKK) is higher in Binding affinity: 17 Ru for the first, 25 Ru for the second.

Going from 6mer-2-700 (RPWHKK) to 6mer-2-693 (KNTIRR), the Binding affinity rises from 15 Ru to 16 Ru.

First: 6mer-2-842 (KPKMRR)
Second: 6mer-2-638 (RCWAKR)
The Binding affinity of the first is lower: 22 Ru for the first, 30 Ru for the second.

Compared with 6mer-2-886 (KTWVRR), 6mer-2-664 (KCCWKK) is lower in Binding affinity: 13 Ru for the first, 11 Ru for the second.

same assay, conditions: SPR, Resonance Units; peptides tested at 10 μM; 6mer-2 Top sequence

First: 6mer-2-572 (KSQRRK)
Second: 6mer-2-596 (KGIQKK)
The Binding affinity of the first is lower: 148 Ru for the first, 153 Ru for the second.

Going from 6mer-2-421 (KVICRK) to 6mer-2-566 (KRLSKK), the Binding affinity rises from 124 Ru to 139 Ru.

same assay, conditions: SPR, Resonance Units; peptides tested at 10 μM; 6mer-2 Top sequence (Table 12)

Going from 6mer-2-212 (KWQLRR) to 6mer-2-293 (KQQSKR), the Binding affinity rises from 148 Ru to 153 Ru.

First: 6mer-2-385 (RGVCKR)
Second: 6mer-2-380 (RLVYRK)
The Binding affinity of the first is higher: 154 Ru for the first, 141 Ru for the second.

Compared with 6mer-2-314 (KQYCKK), 6mer-2-317 (RGLYKR) is higher in Binding affinity: 127 Ru for the first, 135 Ru for the second.

Compared with 6mer-2-358 (RQIYKK), 6mer-2-219 (RGVSKR) is lower in Binding affinity: 154 Ru for the first, 153 Ru for the second.

Going from 6mer-2-399 (RWLTRR) to 6mer-2-229 (RWQSKK), the Binding affinity falls from 148 Ru to 127 Ru.

First: 6mer-2-344 (KGIRRK)
Second: 6mer-2-239 (RGQYKK)
The Binding affinity of the first is higher: 148 Ru for the first, 125 Ru for the second.

With 6mer-2-323 (KVLLRK) the Binding affinity was 145 Ru.

same assay, conditions: SPR, peptides at 10 μM; 6mer-2 Bottom sequence

Going from 6mer-2-1111 (REDEKK) to 6mer-2-1174 (RCEPRK), the Binding affinity falls from 23 Ru to 21 Ru.

First: 6mer-2-1161 (RHSFKK)
Second: 6mer-2-1097 (RFWEKK)
The Binding affinity of the first is higher: 27 Ru for the first, 23 Ru for the second.

Compared with 6mer-2-1140 (KMNKKR), 6mer-2-1155 (RNTNRK) is lower in Binding affinity: 29 Ru for the first, 25 Ru for the second.

For 6mer-2-1189 (KTAPKK), the Binding affinity was 40 Ru.

same assay, conditions: SPR, peptides tested at 10 μM; 5mer Top sequence

First: 5mer-345 (RQQRR)
Second: 5mer-429 (KSQYK)
The Binding affinity of the first is higher: 86 Ru for the first, 63 Ru for the second.

Compared with 5mer-13 (RLISK), 5mer-315 (KLFSR) is higher in Binding affinity: 52 Ru for the first, 77 Ru for the second.

First: 5mer-440 (RQVTK)
Second: 5mer-475 (RRFCK)
The Binding affinity of the first is higher: 57 Ru for the first, 56 Ru for the second.

First: 5mer-198 (KLISR)
Second: 5mer-445 (RLFTR)
The Binding affinity of the first is lower: 74 Ru for the first, 77 Ru for the second.

Going from 5mer-132 (RVRCK) to 5mer-452 (RGVSK), the Binding affinity falls from 83 Ru to 82 Ru.

Going from 5mer-338 (RWILR) to 5mer-129 (KSLLK), the Binding affinity rises from 61 Ru to 63 Ru.

Going from 5mer-44 (RSRTR) to 5mer-334 (KRFYK), the Binding affinity rises from 59 Ru to 64 Ru.

Compared with 5mer-6 (RWQQK), 5mer-302 (RRILK) is higher in Binding affinity: 61 Ru for the first, 70 Ru for the second.

Going from 5mer-422 (KWICK) to 5mer-301 (KWIRK), the Binding affinity falls from 87 Ru to 64 Ru.

Compared with 5mer-151 (RVFTK), 5mer-458 (RRFLK) is lower in Binding affinity: 66 Ru for the first, 65 Ru for the second.

Going from 5mer-354 (RSQTR) to 5mer-23 (KWLYK), the Binding affinity rises from 64 Ru to 86 Ru.

Going from 5mer-386 (RSFLK) to 5mer-432 (RQVRR), the Binding affinity falls from 78 Ru to 52 Ru.

same assay, conditions: SPR, peptides tested at 10 μM; 5mer Top sequence (top combinations)

First: 5mer-230 (KVLCR)
Second: 5mer-256 (RGVCK)
The Binding affinity of the first is higher: 67 Ru for the first, 60 Ru for the second.

Compared with 5mer-288 (KLILK), 5mer-264 (KWYRK) is lower in Binding affinity: 73 Ru for the first, 50 Ru for the second.

First: 5mer-584 (KQIQK)
Second: 5mer-570 (KLVRR)
The Binding affinity of the first is higher: 76 Ru for the first, 56 Ru for the second.

same assay, conditions: SPR, peptides tested at 10 μM; 6mer-1 Bottom sequence (Table 11)

Going from 6mer-1-854 (KKEAVR) to 6mer-1-903 (KKHKPR), the Binding affinity rises from 16 Ru to 37 Ru.

First: 6mer-1-989 (KRATVR)
Second: 6mer-1-990 (RRFTER)
The Binding affinity of the first is lower: 27 Ru for the first, 40 Ru for the second.

Compared with 6mer-1-853 (KRCNGR), 6mer-1-997 (KKPTFR) is higher in Binding affinity: 30 Ru for the first, 35 Ru for the second.

Going from 6mer-1-849 (KKFNWK) to 6mer-1-813 (RREDFK), the Binding affinity falls from 21 Ru to 15 Ru.

same assay, conditions: SPR, peptides tested at 10 μM; 6mer-1 Top sequence

Going from 6mer-1-577 (KKQYQR) to 6mer-1-479 (RRSLTR), the Binding affinity rises from 128 Ru to 135 Ru.

First: 6mer-1-485 (RRWYRR)
Second: 6mer-1-530 (KRLVSK)
The Binding affinity of the first is lower: 126 Ru for the first, 137 Ru for the second.

Going from 6mer-1-591 (KKRLYR) to 6mer-1-597 (KRGFYK), the Binding affinity rises from 147 Ru to 148 Ru.

Compared with 6mer-1-541 (RKWFTR), 6mer-1-438 (RRGFQK) is higher in Binding affinity: 136 Ru for the first, 142 Ru for the second.

Going from 6mer-1-404 (KKQRQK) to 6mer-1-566 (KKSFCR), the Binding affinity rises from 137 Ru to 148 Ru.

6mer-1-565 (KRSIRR) was tested, and the Binding affinity was 151 Ru.

same assay, conditions: SPR, peptides tested at 10 μM; 6mer-1 Top sequence (top combinations)

Compared with 6mer-1-178 (RKRYQK), 6mer-1-19 (KRSFYR) is lower in Binding affinity: 139 Ru for the first, 135 Ru for the second.

Going from 6mer-1-13 (KRQIQR) to 6mer-1-102 (RRRYRR), the Binding affinity falls from 147 Ru to 127 Ru.

First: 6mer-1-114 (RRQITK)
Second: 6mer-1-121 (KRRYTK)
The Binding affinity of the first is higher: 153 Ru for the first, 148 Ru for the second.

Going from 6mer-1-173 (RKQYYR) to 6mer-1-110 (KRQLLK), the Binding affinity falls from 123 Ru to 121 Ru.

Going from 6mer-1-127 (KRVIYR) to 6mer-1-17 (KRVQCR), the Binding affinity falls from 147 Ru to 135 Ru.

In the case of 6mer-1-31 (KRLYCR), the Binding affinity is reported as 121 Ru.

same assay, conditions: SPR; XRRGVRR-7mer and RRGVRRX-7mer

With 3667 (RRGVRRI) [compound 3667] the “Binding affinity, values relative to the RRGVRR sequence” value was 138.

same assay, conditions: SPR; XRRQRR-6mer and RRQRRX-6mer

Going from 3632 (RRQRRT) [compound 3632] to 3635 (RRQRRQ) [compound 3635], the “Binding affinity, relative value to the RRQRR sequence” value falls from 117 to 101.

same assay, conditions: SPR; peptides tested at 10 μM; 5mer Bottom sequence

Going from 5mer-1185 (KPTGR) to 5mer-833 (KATAK), the Binding affinity rises from 30 Ru to 33 Ru.

5mer-883 (KMSAK) and 5mer-876 (KETAR) are the same in Binding affinity: 16 Ru for the first, 16 Ru for the second.

Compared with 5mer-817 (RHKDR), 5mer-1159 (KKWKK) is lower in Binding affinity: 23 Ru for the first, 17 Ru for the second.
